# Data: paper PMC10299379
# Assays:
# [1] = biological target: EBV LMP1-C (latent membrane protein 1, C-terminal domain, amino acids 186-387) (Epstein-Barr virus) (UniProt P03230); assay: SPR; Biacore T200; LMP1-C and LMP2A-N immobilised on sensor chip CM5 as ligands; affibody molecules injected as analytes in serial dilutions; 1:1 Langmuir fit
# [2] = biological target: EBV LMP2A-N (latent membrane protein 2A, N-terminal domain, amino acids 1-119) (Epstein-Barr virus) (UniProt P13285); assay: as above
# Chain of UniProt P13285 (P13285 1-119): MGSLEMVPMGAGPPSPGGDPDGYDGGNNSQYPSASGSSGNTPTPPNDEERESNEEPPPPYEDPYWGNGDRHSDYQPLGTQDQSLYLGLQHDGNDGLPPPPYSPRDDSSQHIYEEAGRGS
# Chain of UniProt P03230 (P03230 186-386): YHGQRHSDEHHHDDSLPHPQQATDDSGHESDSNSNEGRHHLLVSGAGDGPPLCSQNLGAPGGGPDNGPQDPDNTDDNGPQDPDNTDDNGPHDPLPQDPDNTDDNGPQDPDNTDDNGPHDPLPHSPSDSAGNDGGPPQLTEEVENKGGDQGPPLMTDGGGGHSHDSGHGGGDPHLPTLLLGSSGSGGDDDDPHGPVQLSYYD
substance,measurement,setting,value
SPA-Z scaffold (ZWT) (domain or fragment),koff,[1],0.00246 s⁻¹
same,koff,[2],5.97e-05 s⁻¹
